The data set relates to Chk1. The experiment in a line: Chk1 kinase activity of enzyme preparations, ADP production coupled through pyruvate kinase and lactate dehydrogenase (Syntide-2 substrate). Type of data set: biochemical, human. To be noted: for Rate/min: prep concentration 75 nM (HA2-013), 2 nM (HA2-022), 7.3 nM (HB2-061), 0.125 mM Syntide-2, 0.15 mM ATP; for Activity: relative to full length Chk1 (control = 1). The procedure:
The kinase activity of the hChk1 was determined by monitoring the ADP production through enzymatic actions of pyruvate kinase and lactate dehydrogenase. […] Unlike the other forms of Chk1 which have proven difficult to work with (isolate, purify, crystallize, etc), the 1-289 kinase domain form of the human Chk1 enzyme facilitated crystallography, enzyme characterization, and high throughput screening of inhibitors. In particular, the Chk1 kinase domain was used to determine its 3-dimensional structure, which provides unique structural information for inhibitor design for therapeutic development.
The enzymatic activity of a kinase is measured by its ability to catalyze the transfer of a phosphate residue from a nucleoside triphosphate to an amino acid side chain in a selected protein target. The conversion of ATP to ADP generally accompanies the catalytic reaction. Herein, a synthetic substrate peptide, Syntide-2, having amino acid sequence PLARTLSVAGLPGKK (SEQ ID NO. 11) was utilized. The production of ADP from ATP that accompanies phosphoryl transfer to the substrate was coupled to oxidation of NADH using phosphoenolpyruvate (PEP) through the actions of pyruvate kinase (PK) and lactic dehydrogenase (LDH). The oxidation of NADH was monitored by following the decrease of absorbance at 340 nm (e340=6.22 cm−1 mM−1) using a HP8452 spectrophotometer. Typical reaction solutions contained: 4 mM PEP, 0.15 mM NADH, 28 units of LDH/mL, 16 units of PK/mL, 3 mM DTT, 0.125 mM Syntide-2, 0.15 mM ATP and 25 mM MgCl2 in 50 mM TRIS pH 7.5; 400 mM NaCl. Assays were initiated with 10 nM of kinase domain of Chk1, KH289. Ki values were determined by measuring initial enzyme activity in the presence of varying concentrations of inhibitors. The data were analyzed using Enzyme Kinetic and Kaleidagraph software.
The table below (Table 3) compares three different preparations of Chk1. The first preparation is the full length form, which comprises amino acids 1-476 of SEQ ID NO. 2. The next preparation contains proteolytically cleaved fragments, a mixture of Chk1 protein fragments obtained from the full-length protein during fermentation. The exact enzymes involved and cleavage site generated for these fragments is unknown. […] The third preparation is the kinase domain of amino acids 1-289 of SEQ ID NO. 2 (KH289) As mentioned above, the assay used detects the ADP product by coupling through the enzymatic actions of pyruvate kinase and lactate dehydrogenase.

Chain of Chk1 (O14757 9-265 limits assumed): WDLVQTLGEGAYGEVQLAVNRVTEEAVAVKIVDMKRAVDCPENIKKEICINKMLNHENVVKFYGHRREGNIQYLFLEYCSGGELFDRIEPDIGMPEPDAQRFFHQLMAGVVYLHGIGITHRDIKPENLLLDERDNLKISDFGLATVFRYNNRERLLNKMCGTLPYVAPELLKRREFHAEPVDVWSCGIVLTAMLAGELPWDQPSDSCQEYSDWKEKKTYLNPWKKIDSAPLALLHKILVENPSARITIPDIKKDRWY

B1: KH289: human Chk1 kinase domain (AA 1-289), C-terminal 6xHis-tag (protein)
chain: MAVPFVEDWDLVGTLGEGAYGEVQLAVNRVTEEAVAVKIVDMKRAVDCPENIKKEICINKMLNHENVVKFYGHRREGNIQYLFLEYCSGGELFDRIEPDIGMPEPDAQRFFHQLMAGVVYLHGIGITHRDIKPENLLLDERDNLKISDFGLATVFRYNNRERLLNKMCGTLPYVAPELLKRREFHAEPVDVWSCGIVLTAMLAGELPWDQPSDSCQEYSDWKEKKTYLNPWKKIDSAPLALLHKILVENPSARITIPDIKKDRWYNKPLKKGAKRPRVTSGGVSESPSGHHHHHH
Take B1: the “enzymatic activity compared with the full length protein” value (ADP production via pyruvate kinase and lactate dehydrogenase) is recorded as “higher enzymatic activity than the full length protein”.

B2: HB2-061: preparation of the kinase domain of amino acids 1-289 of SEQ ID NO. 2 (KH289) (protein, listed as Homo sapiens)
chain: MAVPFVEDWDLVGTLGEGAYGEVQLAVNRVTEEAVAVKIVDMKRAVDCPENIKKEICINKMLNHENVVKFYGHRREGNIQYLFLEYCSGGELFDRIEPDIGMPEPDAQRFFHQLMAGVVYLHGIGITHRDIKPENLLLDERDNLKISDFGLATVFRYNNRERLLNKMCGTLPYVAPELLKRREFHAEPVDVWSCGIVLTAMLAGELPWDQPSDSCQEYSDWKEKKTYLNPWKKIDSAPLALLHKILVENPSARITIPDIKKDRWYNKPLKKGAKRPRVTSGGVSESPSG
B2: the Rate/min is on record as 0.0200 and the Activity result is recorded as “+10 fold”.

B3: HA2-013: preparation of the full length form of human Chk1, amino acids 1-476 of SEQ ID NO. 2 (protein, listed as Homo sapiens)
chain: MAVPFVEDWDLVGTLGEGAYGEVQLAVNRVTEEAVAVKIVDMKRAVDCPENIKKEICINKMLNHENVVKFYGHRREGNIQYLFLEYCSGGELFDRIEPDIGMPEPDAQRFFHQLMAGVVYLHGIGITHRDIKPENLLLDERDNLKISDFGLATVFRYNNRERLLNKMCGTLPYVAPELLKRREFHAEPVDVWSCGIVLTAMLAGELPWDQPSDSCQEYSDWKEKKTYLNPWKKIDSAPLALLHKILVENPSARITIPDIKKDRWYNKPLKKGAKRPRVTSGGVSESPSGFSKHIQSNLDFSPVNSASSEENVKYSSSQPEPRTGLSLWDTSPSYIDKLVQGISFSQPTCPDHMLLNSGLLGTPGSSQNPWQRLVKRMTRFFTKLDADKSYQCLKETCEKLQYQWKKSCMNQVTISTTDRRNNKLIFKVNLLEMDDKILVDFRLSKGDGLEFKRHFLKIKGKLIDIVSSQKVWLPAT
Consider B3, for which the Rate/min worked out at 0.0190 and the Activity is recorded as 1 (control) fold.

Values taken from patent US6670167B1, “Catalytic domain of the human effector cell cycle checkpoint protein kinase materials and methods for identification of inhibitors thereof” (Agouron Pharmaceuticals, Inc., priority 1999, dated 2003).
